# The supplement of paper PMC10567573
# B1: ELF3 (parent)
# chain: LSKEYWDCLEGKKSKHAPRGTHLW
# Variants of: B1
# Experiment: protein stability index of a GFP-peptide fusion (GPS, HEK-293T) (PSI 1-6); higher = more stable
# Conditions: c terminus: a fixed tail appended
# 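Further: lentivirally expressed fusions sorted by FACS into six bins by GFP to DsRed ratio, PSI derived from sequencing read proportions per bin multiplied by bin number.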
row,Variant,protein stability index
1,LSKEYWDCLEGKKSKHPPRGTHLW,3.21
2,LSKEYWDCLEGKKSKHSPRGTHLW,3.12
3,LSKEYWDCLEGKKSKHHPRGTHLW,2.5
4,LSKEYWDCLEGKKSKHRPRGTHLW,2.38
5,LSKEYWDCLEGKKSKHQPRGTHLW,3.4
6,LSKEYWDCLEGKKSKHYPRGTHLW,2.65
7,LSKEYWDCLEGKKSKHNPRGTHLW,2.99
8,LSKEYWDCLEGKKSKHIPRGTHLW,3.06
9,LSKEYWDCLEGKKSKHKPRGTHLW,2.86
10,LSKEYWDCLEGKKSKHGPRGTHLW,3.65
11,LSKEYWDCLEGKKSKHTPRGTHLW,2.86
12,LSKEYWDCLEGKKSKHLPRGTHLW,2.45
13,LSKEYWDCLEGKKSKHWPRGTHLW,2.4
14,LSKEYWDCLEGKKSKHMPRGTHLW,3.06
15,LSKEYWDCLEGKKSKHEPRGTHLW,3.58
16,LSKEYWDCLEGKKSKHDPRGTHLW,2.69
17,LSKEYWDCLEGKKSKHFPRGTHLW,2.78
18,LSKEYWDCLEGKKSKHVPRGTHLW,3.02
19,LSKEYWDCLEGKKSKHAPRDTHLW,2.96
20,LSKEYWDCLEGKKSKHAPRQTHLW,3.06
21,LSKEYWDCLEGKKSKHAPRNTHLW,2.74
22,LSKEYWDCLEGKKSKHAPRSTHLW,3.15
23,LSKEYWDCLEGKKSKHAPRKTHLW,2.59
24,LSKEYWDCLEGKKSKHAPRITHLW,1.54

row,Variant,protein stability index
1,LSKEYWDCLEGKKSKHAPRMTHLW,2.44
2,LSKEYWDCLEGKKSKHAPRCTHLW,2.73
3,LSKEYWDCLEGKKSKHAPRYTHLW,2.78
4,LSKEYWDCLEGKKSKHAPRTTHLW,2.64
5,LSKEYWDCLEGKKSKHAPRWTHLW,1.94
6,LSKEYWDCLEGKKSKHAPRFTHLW,1.75
7,LSKEYWDCLEGKKSKHAPRLTHLW,2.55
8,LSKEYWDCLEGKKSKHAPRETHLW,2.59
9,LSKEYWDCLEGKKSKHAPRHTHLW,2.53
10,LSKEYWDCLEGKKSKHAPRATHLW,2.45
11,LSKEYWDCLEGKKSKHAPRVTHLW,2.11
12,LSKEYWDCLEGKKSKHAPRPTHLW,2.72
13,LSKEYWDCLEGKKSKHAPRRTHLW,2.64
14,LSKEYWDCLEGKKSKHAPRGIHLW,2.19
15,LSKEYWDCLEGKKSKHAPRGSHLW,2.24
16,LSKEYWDCLEGKKSKHAPRGCHLW,2.22
17,LSKEYWDCLEGKKSKHAPRGMHLW,2.32
18,LSKEYWDCLEGKKSKHAPRGGHLW,2.54
19,LSKEYWDCLEGKKSKHAPRGAHLW,3.4
20,LSKEYWDCLEGKKSKHAPRGKHLW,3.08
21,LSKEYWDCLEGKKSKHAPRGRHLW,2.78
22,LSKEYWDCLEGKKSKHAPRGEHLW,3.37
23,LSKEYWDCLEGKKSKHAPRGPHLW,2.57
24,LSKEYWDCLEGKKSKHAPRGDHLW,3.45

row,Variant,protein stability index
1,LSKEYWDCLEGKKSKHAPRGVHLW,1.8
2,LSKEYWDCLEGKKSKHAPRGNHLW,3.1
3,LSKEYWDCLEGKKSKHAPRGLHLW,2.02
4,LSKEYWDCLEGKKSKHAPRGQHLW,2.78
5,LSKEYWDCLEGKKSKHAPRGFHLW,2.05
6,LSKEYWDCLEGKKSKHAPRGHHLW,2.66
7,LSKEYWDCLEGKKSKHAPRGWHLW,2.04
8,LSKEYWDCLEGKKSKHAPRGYHLW,2.37
9,LSKEYWDCLEGKKSKHANRGTHLW,3.36
10,LSKEYWDCLEGKKSKHAKRGTHLW,3.39
11,LSKEYWDCLEGKKSKHAFRGTHLW,2.97
12,LSKEYWDCLEGKKSKHAERGTHLW,3.01
13,LSKEYWDCLEGKKSKHAYRGTHLW,2.73
14,LSKEYWDCLEGKKSKHAIRGTHLW,2.6
15,LSKEYWDCLEGKKSKHAARGTHLW,2.68
16,LSKEYWDCLEGKKSKHADRGTHLW,3
17,LSKEYWDCLEGKKSKHASRGTHLW,3.13
18,LSKEYWDCLEGKKSKHAVRGTHLW,2.79
19,LSKEYWDCLEGKKSKHAQRGTHLW,2.96
20,LSKEYWDCLEGKKSKHALRGTHLW,2.43
21,LSKEYWDCLEGKKSKHAHRGTHLW,3.24
22,LSKEYWDCLEGKKSKHAGRGTHLW,2.46
23,LSKEYWDCLEGKKSKHATRGTHLW,3.16
24,LSKEYWDCLEGKKSKHARRGTHLW,2.34

row,Variant,protein stability index
1,LSKEYWDCLEGKKSKHAMRGTHLW,2.31
2,LSKEYWDCLEGKKSKHACRGTHLW,2.53
3,LSKEYWDCLEGKKSKHAWRGTHLW,2.24
4,LSKEYWDCLEGKKSKHAPKGTHLW,3.06
5,LSKEYWDCLEGKKSKHAPDGTHLW,3.21
6,LSKEYWDCLEGKKSKHAPYGTHLW,2.18
7,LSKEYWDCLEGKKSKHAPVGTHLW,2.78
8,LSKEYWDCLEGKKSKHAPWGTHLW,2.58
9,LSKEYWDCLEGKKSKHAPHGTHLW,2.66
10,LSKEYWDCLEGKKSKHAPTGTHLW,2.85
11,LSKEYWDCLEGKKSKHAPCGTHLW,2.6
12,LSKEYWDCLEGKKSKHAPEGTHLW,3.63
13,LSKEYWDCLEGKKSKHAPSGTHLW,3.29
14,LSKEYWDCLEGKKSKHAPPGTHLW,2.64
15,LSKEYWDCLEGKKSKHAPAGTHLW,3.06
16,LSKEYWDCLEGKKSKHAPGGTHLW,2.68
17,LSKEYWDCLEGKKSKHAPLGTHLW,2.27
18,LSKEYWDCLEGKKSKHAPMGTHLW,2.83
19,LSKEYWDCLEGKKSKHAPNGTHLW,2.83
20,LSKEYWDCLEGKKSKHAPIGTHLW,2.38
21,LSKEYWDCLEGKKSKHAPQGTHLW,3.79
22,LSKEYWDCLEGKKSKHAPFGTHLW,2.25
